According to patent publication US20260130997A1 (BEAM THERAPEUTICS, published 2026):

Legend:
[1] = biological target: T1, mutant CD45 D1-D2 protein N263S, T264A (Homo sapiens, UniProt P08575 225-394, limits assumed); experiment: binding to mutant CD45 D1-D2 protein relative to WT CD45 D1-D2; method not given
T1 chain: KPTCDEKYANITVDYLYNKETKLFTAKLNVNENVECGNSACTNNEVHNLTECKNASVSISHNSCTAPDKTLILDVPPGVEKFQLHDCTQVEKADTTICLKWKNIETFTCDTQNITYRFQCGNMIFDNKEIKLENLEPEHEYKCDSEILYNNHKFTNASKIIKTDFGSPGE

[2] = biological target: T2, mutant CD45 D1-D2 protein T266A, N267G (Homo sapiens, UniProt P08575 225-394, limits assumed); experiment: as above
T2 chain: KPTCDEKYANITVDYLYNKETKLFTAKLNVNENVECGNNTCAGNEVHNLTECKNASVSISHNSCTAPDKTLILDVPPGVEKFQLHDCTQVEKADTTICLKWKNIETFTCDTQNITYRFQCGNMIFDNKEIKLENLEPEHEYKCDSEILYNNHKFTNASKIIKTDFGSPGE

[3] = biological target: T3, mutant CD45 D1-D2 protein N267G, N268G (Homo sapiens, UniProt P08575 225-394, limits assumed); experiment: as above
T3 chain: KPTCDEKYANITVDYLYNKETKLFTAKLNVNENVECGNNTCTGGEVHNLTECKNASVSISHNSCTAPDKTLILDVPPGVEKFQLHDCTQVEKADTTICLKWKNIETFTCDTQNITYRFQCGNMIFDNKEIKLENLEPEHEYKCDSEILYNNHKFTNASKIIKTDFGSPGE

[4] = biological target: T4, mutant CD45 D1-D2 protein I283M, H285R (Homo sapiens, UniProt P08575 225-394, limits assumed); experiment: as above
T4 chain: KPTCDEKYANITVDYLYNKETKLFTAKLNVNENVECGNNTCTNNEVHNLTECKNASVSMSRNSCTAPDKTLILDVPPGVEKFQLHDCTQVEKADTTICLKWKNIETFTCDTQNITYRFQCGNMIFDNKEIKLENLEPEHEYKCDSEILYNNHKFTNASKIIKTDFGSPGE

[5] = biological target: T5, mutant CD45 D1-D2 protein N253G, N255G (Homo sapiens, UniProt P08575 225-394, limits assumed); experiment: as above
T5 chain: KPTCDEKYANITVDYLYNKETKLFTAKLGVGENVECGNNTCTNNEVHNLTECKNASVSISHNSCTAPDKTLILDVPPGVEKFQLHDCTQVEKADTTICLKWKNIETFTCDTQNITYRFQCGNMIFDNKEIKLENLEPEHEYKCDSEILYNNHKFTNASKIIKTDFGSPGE

[6] = biological target: T6, purified CD45 protein N257G (Homo sapiens, UniProt P08575 225-394, limits assumed); experiment: biosensor; 100 nM mAb030-9 captured with Anti-Human IgG Fc Capture (AHC), 300 nM purified CD45 protein
T6 construct: Purified CD45 variant of the biosensor assay
T6 chain: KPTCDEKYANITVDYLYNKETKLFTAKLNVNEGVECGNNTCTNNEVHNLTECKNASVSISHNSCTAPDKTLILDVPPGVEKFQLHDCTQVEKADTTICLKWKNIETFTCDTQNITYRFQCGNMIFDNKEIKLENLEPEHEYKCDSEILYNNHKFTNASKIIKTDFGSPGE
Method: (§1) 300 nM of purified CD45 protein was contacted with the immobilized antibody. At 300 s the biosensor was placed in buffer without purified CD45 protein.

[7] = biological target: T7, purified CD45 protein E256G (Homo sapiens, UniProt P08575 225-394, limits assumed); experiment: as above
T7 construct: Purified CD45 variant of the biosensor assay
T7 chain: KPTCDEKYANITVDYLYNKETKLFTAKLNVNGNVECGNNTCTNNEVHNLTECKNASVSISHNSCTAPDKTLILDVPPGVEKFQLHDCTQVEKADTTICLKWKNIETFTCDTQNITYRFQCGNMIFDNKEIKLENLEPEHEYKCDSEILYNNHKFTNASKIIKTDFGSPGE
Method: as §1

[8] = biological target: T8, purified CD45 protein N267S (Homo sapiens, UniProt P08575 225-394, limits assumed); experiment: as above
T8 construct: Purified CD45 variant of the biosensor assay
T8 chain: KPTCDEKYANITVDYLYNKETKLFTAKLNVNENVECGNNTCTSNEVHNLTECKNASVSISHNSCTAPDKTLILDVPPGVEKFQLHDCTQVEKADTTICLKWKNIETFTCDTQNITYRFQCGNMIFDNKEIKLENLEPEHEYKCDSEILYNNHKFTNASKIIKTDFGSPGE
Method: as §1

[9] = biological target: T9, purified CD45 protein N257D (Homo sapiens, UniProt P08575 225-394, limits assumed); experiment: as above
T9 construct: Purified CD45 variant of the biosensor assay
T9 chain: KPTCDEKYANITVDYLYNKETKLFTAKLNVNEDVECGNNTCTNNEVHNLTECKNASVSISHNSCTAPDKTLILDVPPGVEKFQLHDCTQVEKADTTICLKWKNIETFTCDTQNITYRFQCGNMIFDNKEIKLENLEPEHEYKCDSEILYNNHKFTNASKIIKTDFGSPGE
Method: as §1

[10] = biological target: T10, purified CD45 protein N267G (Homo sapiens, UniProt P08575 225-394, limits assumed); experiment: as above
T10 construct: Purified CD45 variant of the biosensor assay
T10 chain: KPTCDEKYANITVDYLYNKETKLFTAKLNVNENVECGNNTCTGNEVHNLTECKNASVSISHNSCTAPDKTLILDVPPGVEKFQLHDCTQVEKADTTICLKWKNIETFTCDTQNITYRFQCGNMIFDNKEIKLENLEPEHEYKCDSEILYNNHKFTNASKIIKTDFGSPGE
Method: as §1

B1: mAb U139AGL030-9 (mAb030-9) (antibody, mouse IgG1, kappa, V domains shown)
VH: EVKLLESGGGLVQPGGSLKLSCAASGFDFSRYWMSWVRQAPGKGLEWIGEINPTSSTINFTPSLKDKVFISRDNAKNTLYLQMSKVRSEDTALYYCARGNYYRYGDAMDYWGQGTSVTVSS
VL: DIALTQSPASLAVSLGQRATISCRASKSVSTSGYSYLHWYQQKPGQPPKLLIYLASNLESGVPARFSGSGSGTDFTLNIHPVEEEDAATYYCQHSRELPFTFGSGTKLEIKR
notes: In the biosensor assay the antibody was captured with Anti-Human IgG Fc Capture (AHC); also called mAb30-9; mAb039-9
[1]
  % Mutant Binding: 122%
[2]
  % Mutant Binding: 1.4%
[3]
  % Mutant Binding: 1.3%
[4]
  % Mutant Binding: 1%
[5]
  % Mutant Binding: 44.9%
[6]
  response: < 0.05 nm
[7]
  response: < 0.05 nm
[8]
  response: < 0.05 nm
[9]
  response: < 0.05 nm
[10]
  response: < 0.05 nm
